Results from publication PMC8149123.

Legend:
Assay in all cases: mitochondrial relocalisation (mito-tag) assay, fluorescence microscopy; ANRP fused to Tom70-HA and mCherry held at the outer mitochondrial membrane in Drosophila embryos (cells at stage 12); ectopic recruitment of endogenous CRISPR Arp3:GFP scored by colocalisation, Pearson coefficient and GFP:mCherry intensity ratio; the paper says the approach does not differentiate between direct and indirect interactions
[1] = target: UAS:mito:mCherry:DPod1 (D. melanogaster)
[2] = target: UAS:mito:mCherry:Scar (D. melanogaster)
[3] = target: UAS:mito:mCherry:Coronin (D. melanogaster)
[4] = target: UAS:mito:mCherry:Cortactin (D. melanogaster)
Sequence of UAS:mito:mCherry:Cortactin (D. melanogaster) (main, as listed by the source): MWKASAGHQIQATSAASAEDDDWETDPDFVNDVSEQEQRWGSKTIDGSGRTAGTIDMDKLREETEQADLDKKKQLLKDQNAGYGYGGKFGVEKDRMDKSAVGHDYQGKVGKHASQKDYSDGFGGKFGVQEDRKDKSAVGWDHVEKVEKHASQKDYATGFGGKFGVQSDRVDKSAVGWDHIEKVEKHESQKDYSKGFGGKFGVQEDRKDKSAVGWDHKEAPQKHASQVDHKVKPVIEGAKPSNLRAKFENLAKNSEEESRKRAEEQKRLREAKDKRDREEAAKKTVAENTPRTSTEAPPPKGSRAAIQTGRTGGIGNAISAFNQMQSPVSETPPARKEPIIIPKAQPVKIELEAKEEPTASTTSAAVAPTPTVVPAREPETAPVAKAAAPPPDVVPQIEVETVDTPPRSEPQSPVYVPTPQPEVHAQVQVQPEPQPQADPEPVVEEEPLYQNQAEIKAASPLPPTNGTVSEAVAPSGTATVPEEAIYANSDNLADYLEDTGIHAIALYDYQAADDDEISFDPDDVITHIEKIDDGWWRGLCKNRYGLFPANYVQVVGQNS

Sequence of CRISPR Arp3:GFP (P32392 whole entry): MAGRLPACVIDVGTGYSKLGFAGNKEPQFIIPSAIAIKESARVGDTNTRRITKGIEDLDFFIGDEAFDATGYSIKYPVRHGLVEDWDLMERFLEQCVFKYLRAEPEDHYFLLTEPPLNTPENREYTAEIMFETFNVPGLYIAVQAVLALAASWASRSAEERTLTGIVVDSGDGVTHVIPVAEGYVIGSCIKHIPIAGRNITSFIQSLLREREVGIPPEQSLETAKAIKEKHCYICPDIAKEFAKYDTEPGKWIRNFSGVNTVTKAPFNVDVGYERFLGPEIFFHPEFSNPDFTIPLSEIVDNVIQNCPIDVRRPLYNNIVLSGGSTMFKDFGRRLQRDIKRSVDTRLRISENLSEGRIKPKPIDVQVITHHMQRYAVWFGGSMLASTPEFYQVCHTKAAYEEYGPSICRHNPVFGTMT

Pearson correlation coefficient of colocalisation [1]: 0.625
Pearson correlation coefficient of colocalisation [2]: 0.313
percent colocalization [2]: 50%
Pearson correlation coefficient of colocalisation [3]: 0.234
Pearson correlation coefficient of colocalisation [4]: 0.492
Substance: CRISPR Arp3:GFP (from UniProt P32392 1-418) (natural protein)
